Assay results taken from patent publication US20260258111A1.

Target: WT
Assay: flow cytometry of CHO cells displaying the WT truncated domain, stained with labelled TRAIL; panel stands above the 2 ug/mL panel, its own TRAIL concentration is not labelled

Chain of WT (chain, as listed by the source limits assumed, form in doubt): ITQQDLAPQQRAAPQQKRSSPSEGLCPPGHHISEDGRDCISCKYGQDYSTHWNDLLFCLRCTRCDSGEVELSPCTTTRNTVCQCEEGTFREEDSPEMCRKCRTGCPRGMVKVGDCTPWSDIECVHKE

- APC-A, SSC-A subset (percent of cells in the gate): 3.84%
Substance: APC-TRAIL (from UniProt P50591 114-281) (ligand)
